Assay results from US20190185569A1 (published 2019).

Legend:
[1] = target: T cell surface antigens CTLA4 and PD-1; experiment: flow cytometry, PHA-stimulated CD4+ T cells; Ab 100 nM
PD-1-mFc [2] = target: T1, PD-1-mFc (mouse, UniProt Q15116 25-170 (human entry), limits assumed); experiment: indirect ELISA, coat PD-1-mFc 0.5 ug/mL
T1 construct: extracellular domain; a TEV site is implied; not shown: mouse IgG Fc fragment (mFc)
Protocol: TMB (Neogen, 308177) was added to react for 5 mins. The absorbance was read at the wavelength of 450 nm in a microplate reader.

[3] = target: T2, PD-1 antigen obtained by digesting PD-1-mFc with TEV protease (UniProt Q15116 25-170, limits assumed, biotin-labelled (sites not given)); experiment: BLI (Fortebio), biotin-PD-1 on SA sensor, antibody in solution
T2 construct: extracellular domain; also called antigen PD-1
T2 sequence (Q15116 25-170 limits assumed): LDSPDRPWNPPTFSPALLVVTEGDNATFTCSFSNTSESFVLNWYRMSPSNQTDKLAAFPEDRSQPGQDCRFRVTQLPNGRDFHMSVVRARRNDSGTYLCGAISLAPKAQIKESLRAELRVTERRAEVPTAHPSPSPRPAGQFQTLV
Protocol: The antibodies were diluted with PBST from 200 nM down three fold each time. The dissociation was also in PBST.

PD-1-mFc [4] = target: T1, PD-1-mFc; experiment: competition ELISA, coat PD-1-mFc 0.2 ug/mL, PDL1-hFc 2 ug/ml
[5] = target: T3, CTLA4 antigen obtained by digesting CTLA4-mFc with TEV protease (human, UniProt P16410 36-161); experiment: BLI (Fortebio), antibody amine-coupled on AR2G sensor, CTLA4 in solution
T3 construct: extracellular domain; Biotin-labelled when immobilised on SA sensors; also called CTLA4 protein; antigen CTLA4
T3 sequence (P16410 36-161): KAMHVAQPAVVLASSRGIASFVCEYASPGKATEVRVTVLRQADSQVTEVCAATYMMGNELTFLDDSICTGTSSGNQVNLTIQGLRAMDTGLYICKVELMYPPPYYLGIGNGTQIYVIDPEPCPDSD
Protocol: 1.2 Antibody 4G10 was immobilized to AR2GBiosensors by amine coupling method, and then blocked with ethanolamine and equilibrating in PBST, and then bound to CTLA4. CTLA4 was double gradient diluted with PB ST to the concentrations of 268.1, 134.1, 67, 33.5, 16.8, 8.38, 4.19, and 0 nM. The dissociation was also in PBST.

T1 sequence (Q15116 25-170 limits assumed): as the sequence (Q15116 25-170 limits assumed) above

Molecule: hIgG (antibody)
- MFI (fluorescence intensity) [1]: 10.2

B1: monoclonal antibody 14C12 (antibody, V domains shown)
VH: EVKLVESGGGLVKPGGSLKLSCAASGFAFSSYDMSWVRQTPEKRLEWVATISGGGRYTYYPDSVKGRFTISRDNARNTLYLQMSSLRSEDTALYYCANRYGEAWFAYWGQGTLVTVSA
VL: DIKMTQSPSSMYASLGERVTFTCKASQDINTYLSWFQQKPGKSPKTLIYRANRLVDGVPSRFSGSGSGQDYSLTISSLEYEDMGIYYCLQYDEFPLTFGAGTKLEL
notes: Mouse hybridoma antibody; also called antibody secreted by hybridoma LT003 (PD-1-14C12)
- EC50 (PD-1-mFc [2]): 0.175 nM
- Kd [3]: 0.0181 nM
- koff [3]: 6.12e-06 s⁻¹
- kon [3]: 338000 M⁻¹ s⁻¹
- EC50 (PD-1-mFc [4]): 0.853 nM

B2: monoclonal antibody 4G10 (antibody, V domains shown)
VH: QVKLQESGPELVKPGASMKISCKASGYSFTGYTMNWVKQSHGKNLEWIGLINPYNNITNYNQKFMGKATFTVDKSSSTAYMELLRLTSEDSGVYFCARLDYRSYWGQGTLVTVSA
VL: QAVVTQESALTTSPGETVTLTCRSSTGAVTTSNFANWVQEKPDHLFTSLIGGTNNRAPGVPARFSGSLIGDKAALTITGAQTEDEAIYFCALWYSNHWVFGGGTKLTVLG
notes: Mouse hybridoma antibody purified on protein A; also called antibody secreted by hybridoma LT002 (CTLA4-4G10)
- Kd [5]: 0.301 nM
- koff [5]: 0.000114 s⁻¹
- kon [5]: 378000 M⁻¹ s⁻¹
